Like-named read-outs stand apart in the source and are kept apart here.
T1: mouse BR3 extracellular domain (mouse, UniProt Q9D8D0 1-64)
T1 construct: also called mBR3-ECD; mBR-ECD
T1 sequence: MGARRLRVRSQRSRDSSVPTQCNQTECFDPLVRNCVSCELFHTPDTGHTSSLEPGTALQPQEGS


Assays:
[1] = molecular target: T2, human BR3 extracellular domain (human, UniProt Q96RJ3 1-61); experiment: SPR, BR3 ECD on chip;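 further: Anti-BR3 antibodies passed over the chip at high flow in PBS with 0.05% polysorbate 20, on and off rates fitted together globally to a 1:1 binding model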
T2 construct: biotinylated where used as tracer; also called hBR3-ECD; BR3-ECD
Description: After coupling, unoccupied sites on the chip were blocked by injecting 20 μl of 1M ethanolamine, pH 8.5. The running buffer was PBS containing 0.05% polysorbate 20. […] The binding surface was regenerated by injecting 20-30 μl of 10 mM glycine.HCl (pH 1.5). […] Data were analyzed using a 1:1 binding model using global fitting. The association and dissociation rate constants were fitted simultaneously (BIAevaluation software).
A high flow rate was used in order to minimize mass transport effects.

[2] = molecular target: T3, variant human BR3-Fc fusion; experiment: SPR, vBR3-Fc on chip;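 further: Anti-BR3 antibodies passed over chip-bound BR3-Fc in PBS with 0.05% polysorbate 20, on and off rates fitted together globally to a 1:1 binding model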
T3 construct: produced in CHO cells; also called vBR3-Fc; vhBR3-Fc

[3] = molecular target: T4, human BR3 expressed on cells (human, UniProt Q96RJ3 1-184); experiment: BJAB cells, competition with biotin-BAFF
T4 construct: whole, on cells; also called BR3 on BJAB cells; cell surface BR3
Description: (§1) The diluted samples were added to the pelleted BJAB cells in 96 well plates as described above. After 45 min incubation on ice, the cells were washed twice with 200 μl cold assay buffer, and streptavidin-HRP (AMDEX, Amersham Biosciences, Piscataway, N.J.) diluted 1/5,000 in assay buffer was added (100 μl/well). The plates were incubated for a final 45 min on ice. After washing twice with cold assay buffer, color was developed using TMB, the reaction was stopped with H₃PO₄, and the plates were read as described above.

[4] = molecular target: T2, human BR3 extracellular domain; experiment: SPR, IgG on chip, BR3 ECD in solution
[5] = molecular target: T1, mouse BR3 extracellular domain; experiment: SPR, IgG on chip, BR3 ECD in solution
[6] = molecular target: T2, human BR3 extracellular domain; experiment: F(ab)'2 phage solution binding competition ELISA
Description: (§2) Third, a competition ELISA was performed. […] The wells were blocked by adding 65 ul 1% BSA for 30 minutes followed by 40 ul 1% Tween20 for another 30 minutes. The wells were washed with PBS—0.05% Tween20 5 times. […] The wells of the second plate were washed with PBS—0.5% Tween20 at least three times. 75 ul of HRP-conjugated anti-M13 antibody (1/5000 dilution with ELISA buffer) per well was added and incubated at room temperature for 30 minutes. The wells were washed again with PBS—0.05% Tween20 at least five times.

[7] = molecular target: T1, mouse BR3 extracellular domain; experiment: F(ab)'2 phage solution binding competition ELISA
Description: as §2

[8] = molecular target: T4, human BR3 expressed on cells; experiment: BJAB cells, direct binding
[9] = molecular target: T4, human BR3 expressed on cells; experiment: BJAB cells, competition with biotin-BAFF; remark: listed apart in the source
Description: as §1

[10] = molecular target: T2, human BR3 extracellular domain; experiment: SPR BIAcore-3000, Fab
Excerpt: (§3) Surface plasmon resonance assays on a BIAcore™-3000 were used to determine the affinity of the Fabs.

[11] = molecular target: T1, mouse BR3 extracellular domain; experiment: SPR BIAcore-3000, Fab
Excerpt: as §3

[12] = molecular target: T2, human BR3 extracellular domain; experiment: phage competition ELISA
[13] = molecular target: T1, mouse BR3 extracellular domain; experiment: phage competition ELISA

Binder | Kd [1] [nM] | koff [1] [s⁻¹] | kon [1] [M⁻¹ s⁻¹] | Kd [4] [nM] | koff [4] [s⁻¹] | kon [4] [M⁻¹ s⁻¹] | EC50 [8] [nM] | IC50 [9] [nM] | further results
chimeric 11G9 IgG (antibody, V domains shown, also called Ch 11G9 IgG) VH: DVQLQESGPSLVKPSQTLSLTCSVTGDSITSGYWNWIRKFPGNKLEYMGYISYSGSTYYNPSLKSRISITRDTSKNQFYLQLLSVTTEDTATYYCAGLDGLYWYFDVWGAGTLVTVSS VL: DIVMTQTPLSLPVSLGDQASISCRSSQSLVHSNGNTYLHWYLQKPGQSPKLLIYKVSNRFSGVPDRFSGSGSGTDFTLKISRVEAEDLGVYFCSQSTHVPPFTFGSGT | 0.34 | 0.000549 | 1.64e+06 |  |  |  |  |  | Kd [2]: 2.78 nM; koff [2]: 0.00218 s⁻¹; kon [2]: 780000 M⁻¹ s⁻¹; IC50 [3]: 0.45 nM
mV3-46 IgG (antibody, V domains shown, IgG on chip) VH: EVQLVESGGGLVQPGGSLRLSCAASGFTISNSSIHWVRQAPGKGLEWVAWVLPSVGFTDYADSVKGRFTISADTSKNTAYLQMNSLRAEDTAVYYCARRVCYNRLGVCAGGMDYWGQGTLVTVSS VL: DIQMTQSPSSLSASVGDRVTITCRASQDVSTAVAWYQQKPGKAPKLLIYSASFLYSGVPSRFSGSGSGTDFTLTISSLQPEDFATYYCQQSQISPPTFGQGTKVEIKR |  |  |  | 0.24 | 7.31e-05 | 300000 |  |  | Kd [5]: 1.17 nM; koff [5]: 0.00014 s⁻¹; kon [5]: 119000 M⁻¹ s⁻¹
V3-1h (antibody, human IgG1, V domains shown) VH: EVQLVESGGGLVQPGGSLRLSCAASGFTISSNSIHWVRQAPGKGLEWVAWITPSDGNTDYADSVKGRFTISADTSKNTAYLQMNSLRAEDTAVYYCARRVCYNRLGVCAGGMDYWGQGTLVTVSS VL: DIQMTQSPSSLSASVGDRVTITCRASQDVSTAVAWYQQKPGKAPKLLIYSASFLYSGVPSRFSGSGSGTDFTLTISSLQPEDFATYYCQQSRITPPTFGQGTKVEIKR |  |  |  |  |  |  |  |  | IC50 [3]: 5.97 nM
51 (Fab, V domains shown, also called V51; clone 51) VH: EVQLVESGGGLVQPGGSLRLSCAASGFTISSTGIHWVRQAPGKGLEWVGGISPSSGSTNYADSVKGRFTISADTSKNTAYLQMNSLRAEDTAVYYCARRKVVSSHVTNKYVMDYWGQGTLVTVSS VL: DIQMTQSPSSLSASVGDRVTITCRASQDVSTAVAWYQQKPGKAPKLLIYSASFLYSGVPSRFSGSGSGTDFTLTISSLQPEDFATYYCQQSYTTPPTFGQGTKVEIKR |  |  |  |  |  |  |  |  | binding result [6]: binds; binding result [7]: no binding
44 (Fab, V domains shown, also called V44; clone 44) VH: EVQLVESGGGLVQPGGSLRLSCAASGFTITGSYIHWVRQAPGKGLEWVAWIYPDGGYTDYADSVKGRFTISADTSKNTAYLQMNSLRAEDTAVYYCASKPAGPFGYWGQGTLVTVSS VL: DIQMTQSPSSLSASVGDRVTITCRASQDVSTAVAWYQQKPGKAPKLLIYSASFLYSGVPSRFSGSGSGTDFTLTISSLQPEDFATYYCQQSYTTPPTFGQGTKVEIKR |  |  |  |  |  |  |  |  | binding result [6]: no binding; IC50 [7]: 1500 nM
V3-46s IgG (antibody, V domains shown, also called hV3-46S; HuV3-46s-IgG) VH: EVQLVESGGGLVQPGGSLRLSCAASGFTISSSSIHWVRQAPGKGLEWVAWVLPSVGFTDYADSVKGRFTISADTSKNTAYLQMNSLRAEDTAVYYCARRVCYNRLGVCAGGMDYWGQGTLVTVSS VL: DIQMTQSPSSLSASVGDRVTITCRASQDVSTAVAWYQQKPGKAPKLLIYSASFLYSGVPSRFSGSGSGTDFTLTISSLQPEDFATYYCQQSQISPPTFGQGTKVEIKR |  |  |  |  |  |  | 1.8 | 1.9 | 
V3-46s-9 Fab (Fab, V domains shown, soluble Fab in SPR; also called V46s-9) VH: EVQLVESGGGLVQPGGSLRLSCAASGFTISSSSIHWVRQAPGKGLEWVAWVLPSVGFTDYADSVKGRFTISADTSKNTAYLQMNSLRAEDTAVYYCARRVCYNRLGVCAGGMDYWGQGTLVTVSS VL: DIQMTQSPSSLSASVGDRVTITCRASEDISTAVAWYQQKPGKAPKLLIFAASYLYSGVPSRFSGSGSGTDFTLTISSLQPEDFATYYCQQSQISPPTFGQGTKVEIK |  |  |  |  |  |  |  |  | Kd [10]: 0.09 nM; koff [10]: 1.6e-05 s⁻¹; kon [10]: 160000 M⁻¹ s⁻¹; Kd [11]: 0.32 nM; koff [11]: 0.00015 s⁻¹; kon [11]: 470000 M⁻¹ s⁻¹; IC50 [12]: 0.053 nM; IC50 [13]: 0.182 nM
V3-46s-42 Fab (Fab, V domains shown, soluble Fab in SPR; also called V46s-42) VH: EVQLVESGGGLVQPGGSLRLSCAASGFTISSSSIHWVRQAPGKGLEWVAWVLPSVGFTDYADSVKGRFTISADTSKNTAYLQMNSLRAEDTAVYYCARRVCYNRLGVCAGGMDYWGQGTLVTVSS VL: DIQMTQSPSSLSASVGDRVTITCRASEDISTAVAWYQQKPGKAPKLLIYAASFLYSGVPSRFSGSGSGTDFTLTISSLQPEDFATYYCQQSQISPPTFGQGTKVEIK |  |  |  |  |  |  |  |  | Kd [10]: 0.026 nM; koff [10]: 1.4e-05 s⁻¹; kon [10]: 617000 M⁻¹ s⁻¹; Kd [11]: 0.39 nM; koff [11]: 0.00029 s⁻¹; kon [11]: 740000 M⁻¹ s⁻¹
mV3-46s IgG (antibody, V domains shown, IgG on chip) VH: EVQLVESGGGLVQPGGSLRLSCAASGFTISSSSIHWVRQAPGKGLEWVAWVLPSVGFTDYADSVKGRFTISADTSKNTAYLQMNSLRAEDTAVYYCARRVCYNRLGVCAGGMDYWGQGTLVTVSS VL: DIQMTQSPSSLSASVGDRVTITCRASQDVSTAVAWYQQKPGKAPKLLIYSASFLYSGVPSRFSGSGSGTDFTLTISSLQPEDFATYYCQQSQISPPTFGQGTKVEIKR |  |  |  | 0.02 | 3.18e-05 | 1.57e+06 |  |  | Kd [5]: 0.32 nM; koff [5]: 9.51e-05 s⁻¹; kon [5]: 298000 M⁻¹ s⁻¹
Hu2.1-30 IgG (antibody, V domains shown, humanized IgG; also called h2.1-30) VH: EVQLVESGGGLVQPGGSLRLSCAASGDSITRGYWNWVRQAPGKGLEWVGYINYSGTTYYNPSLKSRFTISRDTSKNTFYLQMNSLRAEDTAVYYCANLNYYGAMDYWGQGTLVTVSS VL: DIQMTQSPSSLSASVGDRVTITCRASESVDDYGISFMHWYQQKPGKAPKLLIYRASDLESGVPSRFSGSGSGTDFTLTISSLQPEDFATYYCQQTSKDPWTFGQGTKVEIKR | 0.017 | 4e-05 | 2.41e+06 | 0.02 | 7.6e-05 | 3.57e+06 | 0.11 | 0.17 | 
Hu2.1-46 IgG (antibody, V domains shown, humanized IgG; also called h2.1-46) VH: EVQLVESGGGLVQPGGSLRLSCAASGDSITRGYWNWVRQAPGKGLEWVGYINYSGTTYYNPSLKSRFTISRDTSKNTFYLQMNSLRAEDTAVYYCANSNFYGAMDYWGQGTLVTVSS VL: DIQMTQSPSSLSASVGDRVTITCRASESVDDYGISFMHWYQQKPGKAPKLLIYRASDLESGVPSRFSGSGSGTDFTLTISSLQPEDFATYYCQQTSKDPWTFGQGTKVEIKR | 0.02 | 4.5e-05 | 2.2e+06 | 0.193 | 0.000432 | 2.24e+06 | 0.11 | 0.19 | Kd [2]: 0.041 nM; koff [2]: 3.96e-05 s⁻¹; kon [2]: 978000 M⁻¹ s⁻¹
chimeric 2.1 IgG (antibody, V domains shown, also called Ch 2.1 IgG; ch 2.1) VH: EVQLQESGPSLVKPSQTLSLTCSVTGDSITRGYWNWIRKFPGNKLEFMGYINYSGTTYYNPSLKSRISITRDTSKNQYYLQLNSVTTEDTATYYCATPHTYGAMDYWGQGTTLTVSA VL: DIVLTQSPVSLAVSLGQRATISCRASESVDDYGISFMHWYQQKPGQPPKLLIYRASDLESGIPARFSGSGSGTDFTLTINPVETDDVAIYYCQQTSKDPWTFGGGT | 0.04 | 6.8e-05 | 1.68e+06 |  |  |  | 0.14 | 0.2 | Kd [2]: 0.04 nM; koff [2]: 3.8e-05 s⁻¹; kon [2]: 980000 M⁻¹ s⁻¹; IC50 [3]: 0.23 nM
Hu9.1-88 IgG (antibody, V domains shown, humanized IgG; also called h9.1-88) VH: EVQLVESGGGLVQPGGSLRLSCAASGFPVTGSYVSWVRQAPGKGLEWVGFIRDKANGYTTEYNPSVKGRFTISRDTSKNTLYLQMNSLRAEDTAVYYCAQVRRALDYWGQGTLVTVSS VL: DIQMTQSPSSLSASVGDRVTITCKSSQSLLYSSNQNNYLAWYQQKPGKAPKLLIYWASTRESGVPSRFSGSGSGTDFTLTISSLQPEDFATYYCQQYYTYPYTFGQGTKVEIKR | 0.025 | 4.9e-05 | 1.94e+06 | 0.911 | 0.000926 | 1.02e+06 | 0.43 | 0.6 | Kd [2]: 0.2 nM; koff [2]: 0.000262 s⁻¹; kon [2]: 1.3e+06 M⁻¹ s⁻¹
h9.1-70 IgG (antibody, V domains shown) VH: EVQLVESGGGLVQPGGSLRLSCAASDSPRSGYYISWVRQAPGKGLEWVGFIRDKANGYTTEYNPSVKGRFTISADTSKNTAYLQMNSLRAEDTAVYYCAQVRRALDYWGQGTLVTVSS VL: DIQMTQSPSSLSASVGDRVTITCKSSQSLLYSSNQNNYLAWYQQKPGKAPKLLIYWASIRDSGVPSRFSGSGSGTDFTLTISSLQPEDFATYYCQQYYTYPYTFGQGTKVEIKR |  |  |  |  |  |  | 0.33 | 0.82 | 
h9.1-73 IgG (antibody, V domains shown) VH: EVQLVESGGGLVQPGGSLRLSCAASGLPMAGFYTSWVRQAPGKGLEWVGFIRDKANGYTTEYNPSVKGRFTISADTSKNTAYLQMNSLRAEDTAVYYCAQVRRALDYWGQGTLVTVSS VL: DIQMTQSPSSLSASVGDRVTITCKSSQSLLYSSNQNNYLAWYQQKPGKAPKLLIYWAQHLDSGVPSRFSGSGSGTDFTLTISSLQPEDFATYYCQQYYTYPYTFGQGTKVEIKR |  |  |  |  |  |  | 0.79 | 1.78 | 
